According to US20050204417A1 (WASHINGTON STATE UNIVERSITY RESEARCH FOUNDATION, published 2005):

B1: His-tagged AgGPPS2 truncated protein (SEQ ID NO:12) (enzyme)
chain: MFDFNKYMDSKAMTVNEALNKAIPLRYPQKIYESMRYSLLAGGKRVRPVLCIAACELVGGTEELAIPTACAIEMIHTMSLMHDDLPCIDNDDLRRGKPTNHKIFGEDTAVTAGNALHSYAFEHIAVSTSKTVGADRILRMVSELGRATGSEGVMGGQMVDIASEGDPSIDLQTLEWIHIHKTAMLLECSVVCGAIIGGASEIVIERARRYARCVGLLFQVVDDILDVTKSSDELGKTAGKDLISDKATYPKLMGLEKAKEFSDELLNRAKGELSCFDPVKAAPLLGLADYVAFRQNLEHHHHHH
notes: N-terminally truncated (leader removed) with C-terminal His6 tag, expressed in E. coli; homodimer by gel filtration
B2: His-tagged AgGPPS3 truncated protein (SEQ ID NO:20) (enzyme)
chain: MFDFNKYMLSKAMAVTEALDKAIPHSYPQKIHESMRYSLLAGGKRVRPVLCIAACELVGGREELAMPTACAMEMIHTMSLIHDDLPCMDNDDLRRGKPTNHKVFGQDTALLAGDALHAFAFEHIVAFTSKSVGSDGILRAVTELARATGPQGIMGGQIVDIASERDAFVDLQTLEWIHIHKTAVLFECATVCGAIIGGASGDEIERIRRFARYLGLLFQVVDDILDVTKSSEDLGKTAGKDLVSDKATYPKLMGLEKAKGFSLELLNKAKEELSCFDPMKAAPLFGLADYMALRQNLEHHHHHH
notes: as for B1
B3: His-tagged AgGPPS1 truncated protein (SEQ ID NO:16) (enzyme)
chain: MFDFKEYLHSKAISVNEALERAVPLRYPEKIHEAMRYSLLAGGKRIRPILTIAACELVGGSEELAMPTACAMEMIHTMSLIHDDLPSMDNDDLRRGKLTNHKVFGEGTAVLAGDALLSFAFEHIAVSTRKTVASHRVLRVVSELGKAIGSQGVAGGQVADITSEGDPSVGLETLEWIHIHKTAVLLECAVVSGAIIGGASENEIERTGRYARCVGLLFQVVDDILDVTRSSEELGKTAGKDLVSDKATYPKLMGLEKAKEFADELLDRAKEELSCFNPAKAAPLLGLADYIALRQNLEHHHHHH
notes: as for B1

Molecular target: the molecule itself
Experiment: gel filtration on calibrated Superdex 200; self-association of the subunit
Procedure: Molecular weight determination and kinetic evaluation. The molecular weight of GPP synthase was determined by gel filtration chromatography on a calibrated XK 16/70 column of Superdex 200 (Amersham Biosciences) as previously described (C. Burke and R. Croteau, J. Biol. Chem. 277:3141-3149, 2002). For kinetic evaluation, the standard prenyltransferase assay was performed (C. Burke and R. Croteau, J. Biol. Chem. 277:3141-3149, 2002) but the reaction was terminated after 4 min. to ensure linearity in the rate measurements. For preparative incubations, the reaction time was extended to 8 min., and all assays contained from 0.25 to 1.0 μg of purified protein.
B1: binds. B2: binds. B3: binds.
